This note sets out measurements from patent publication US20100041597A1 (published 2010).

One assay has as its target T1, PKC-α (purified isoform) (Homo sapiens (Human), UniProt P17252 2-672).
T1 construct: also called PKC-alpha; PKCalpha
Briefly: competitive ELISA on purified PKC-α vs anti-PKC-α Ab; PRE 200 µM. The method, then:
(§1) Greiner 96 well ELISA plates were coated with the appropriate PKC isoform diluted in PBSN (PBS with Calcium/Magnesium+0.05% Sodium azide w/w). 50 μL/well at 250 ng/mL was used. Control wells contained PBSN only. Plates were incubated overnight at 4° C.
After incubation, 5 μL of 1.1:400 anti-PKC (isoform specific antibody) was added per well (to provide a final concentration of 1:4000). For PKC-epsilon, 1.1:800 dilution was used and for PKC-zeta a 1.1:100 dilution was used due to high and low binding affinity, respectively. The plates were then incubated 1 h at room temperature, followed by washing with dH₂O as described above.
(§2) 50 μL of 1:1000 dilution of Alkaline Phosphatase (AP) conjugated antibody (anti-rabbit for all except zeta, which was anti-goat) was then added and the plate incubated for 1 h at room temperature. Washing with dH₂O was then repeated. Finally, 100 μL of pNPP solution in pNPP buffer (2 mM MgCl₂, 100 mM Sodium bicarbonate in water, pH 9.8) was added to all wells and incubated for 8 minutes for α, βI, βII ε, and ζ, or for 15-20 mins for […] (until sufficient coloration is observed). The reaction was stopped by addition of Stop solution (2N NaOH) and the absorbance at 405 nm was read on a Galaxy Plate reader.

The target in assay [1] is T2, PKC-ε (purified isoform) (Homo sapiens (Human), UniProt Q02156 1-737).
T2 construct: also called PKC-epsilon; PKCepsilon
T2 sequence: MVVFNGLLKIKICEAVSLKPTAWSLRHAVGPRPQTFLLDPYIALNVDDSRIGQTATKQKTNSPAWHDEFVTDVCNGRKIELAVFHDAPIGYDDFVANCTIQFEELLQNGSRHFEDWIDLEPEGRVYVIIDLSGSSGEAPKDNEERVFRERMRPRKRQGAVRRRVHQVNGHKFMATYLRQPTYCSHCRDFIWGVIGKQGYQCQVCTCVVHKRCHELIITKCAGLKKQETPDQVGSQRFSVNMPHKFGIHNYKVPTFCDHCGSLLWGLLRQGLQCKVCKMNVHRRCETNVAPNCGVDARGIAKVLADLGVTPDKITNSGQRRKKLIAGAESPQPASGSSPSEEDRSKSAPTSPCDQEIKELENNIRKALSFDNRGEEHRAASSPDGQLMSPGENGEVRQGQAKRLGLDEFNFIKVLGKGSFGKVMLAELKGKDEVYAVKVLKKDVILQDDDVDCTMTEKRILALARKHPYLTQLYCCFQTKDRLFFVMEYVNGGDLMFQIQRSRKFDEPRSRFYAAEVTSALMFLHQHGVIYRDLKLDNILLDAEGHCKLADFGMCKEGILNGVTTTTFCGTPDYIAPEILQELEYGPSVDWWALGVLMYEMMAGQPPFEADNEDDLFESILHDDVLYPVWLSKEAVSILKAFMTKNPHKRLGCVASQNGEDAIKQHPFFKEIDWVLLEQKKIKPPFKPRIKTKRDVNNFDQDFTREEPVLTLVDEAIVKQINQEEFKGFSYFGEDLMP
Nature of the assay: competitive ELISA on purified PKC-ε vs anti-PKC-ε Ab; PRE 200 µM. Here is the method: as §1
(§3) The plates were washed 3 times with 200 μL of dH₂O per well, then 100 μL of blocking solution was added per well and the plate incubated for 1 h at 37° C. The washing steps with dH₂O were repeated and 50 μL of the appropriate PRE solution (PRE stock solution [20 mM in DMSO] diluted in PBSN) was added and the plate incubated for 1 h at room temperature.
as §2
In general terms: ELISA stands for enzyme-linked immunosorbent assay.

Assay [2] addresses T2, PKC-ε (purified isoform). Briefly: competitive ELISA on purified PKC-ε vs anti-PKC-ε Ab; PRE 50 µM. Here is the method:
as §1, §3, §2

The target of assay [3] is T3, PKC-ι (endogenous, human cell extracts) (human, UniProt P41743 2-596).
T3 construct: also called PKC-iota
T3 sequence (looked up): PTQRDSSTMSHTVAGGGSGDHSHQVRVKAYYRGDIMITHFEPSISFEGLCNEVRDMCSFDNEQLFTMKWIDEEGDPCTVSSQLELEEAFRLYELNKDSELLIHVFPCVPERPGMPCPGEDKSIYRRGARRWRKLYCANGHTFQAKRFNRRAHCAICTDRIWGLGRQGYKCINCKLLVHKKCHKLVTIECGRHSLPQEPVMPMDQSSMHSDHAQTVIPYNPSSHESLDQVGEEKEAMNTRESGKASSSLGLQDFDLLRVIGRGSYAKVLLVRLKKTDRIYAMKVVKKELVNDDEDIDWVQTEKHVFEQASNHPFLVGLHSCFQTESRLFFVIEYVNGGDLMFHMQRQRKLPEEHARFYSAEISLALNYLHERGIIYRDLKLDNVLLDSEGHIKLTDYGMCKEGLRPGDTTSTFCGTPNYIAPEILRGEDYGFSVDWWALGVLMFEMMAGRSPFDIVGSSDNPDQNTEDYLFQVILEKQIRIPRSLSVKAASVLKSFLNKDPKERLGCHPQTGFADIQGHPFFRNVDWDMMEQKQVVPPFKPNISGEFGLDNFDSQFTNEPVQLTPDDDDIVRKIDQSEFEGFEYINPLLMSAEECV
Nature of the assay: Western-blot competition on cell extracts against the anti-PKC-ι primary antibody; band densitometry. Here is the method:
Binding efficiency and specificity of the peptides PRE 2, 3, 4, 5, 6, 7, 8, 9, 10, 11, 12 and 13 (see Table 3) was also tested using cytoplasmic extracts from different cell lines expressing appropriate PKC isoforms as described for Example 1. Briefly, the protein cytoplasmic extracts were separated by electrophoresis and transferred onto nitrocellulose membranes by standard Western blotting procedures. The bands on the Western blots were detected with matching primary antibodies and alkaline phosphatase conjugated secondary antibody. The bands were then scanned and the relative density measurements obtained.
This procedure to assess the binding characteristics of the PREs is based on competition binding of the PRE with the primary anti-isoform PKC specific antibodies. The lower the measured band density, the greater the binding of the PRE to the PKC isoform. The PREs were added at 10 and 20 times (10×, 20×) the primary antibody concentration, according to classical competition between antigenic peptide and primary antibody. The following cell lines (obtained from the ATCC) were used: H661—NCI human lung carcinoma NSCLC; MDAMB231—human highly invasive breast cancer cell line from pleural effusion; LS180—human colon adenocarcinoma; LnCAP—human prostate adenocarcinoma; CCD16Lu—human lung fibroblasts; Du145—human prostate carcinoma brain metastasis, and T24—human bladder carcinoma.

Assay [4] concerns the target T4, PKC-βII (purified isoform) (Homo sapiens (Human), UniProt P05771 2-621).
T4 construct: also called PKC-beta II
Briefly: competitive ELISA on purified PKC-βII vs anti-PKC-βII Ab; PRE 50 µM. Here is the method:
as §1, §3, §2

T4 sequence (P05771 other isoform, or with tags, fused parts or gaps limits assumed): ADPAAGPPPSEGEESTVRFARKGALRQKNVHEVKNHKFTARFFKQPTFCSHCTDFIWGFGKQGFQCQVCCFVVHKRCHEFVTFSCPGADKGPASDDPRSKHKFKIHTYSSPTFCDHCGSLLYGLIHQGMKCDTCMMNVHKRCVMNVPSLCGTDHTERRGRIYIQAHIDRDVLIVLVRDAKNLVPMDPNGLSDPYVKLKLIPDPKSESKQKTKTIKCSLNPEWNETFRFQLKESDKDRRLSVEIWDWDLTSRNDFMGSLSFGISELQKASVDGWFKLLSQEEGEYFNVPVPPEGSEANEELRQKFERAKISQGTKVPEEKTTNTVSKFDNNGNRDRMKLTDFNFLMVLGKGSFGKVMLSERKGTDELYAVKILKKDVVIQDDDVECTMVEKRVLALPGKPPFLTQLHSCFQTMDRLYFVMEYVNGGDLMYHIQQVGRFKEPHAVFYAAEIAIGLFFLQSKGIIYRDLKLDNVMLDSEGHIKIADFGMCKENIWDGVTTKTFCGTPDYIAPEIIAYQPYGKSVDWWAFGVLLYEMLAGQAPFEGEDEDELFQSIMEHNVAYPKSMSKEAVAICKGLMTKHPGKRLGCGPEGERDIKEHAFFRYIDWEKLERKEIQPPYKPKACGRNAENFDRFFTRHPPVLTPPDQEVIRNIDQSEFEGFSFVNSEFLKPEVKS

B1: PRE 3 (peptide)
peptide: Ac-AKGIQEVKGGDAQNLIGISI-NH2
notes: Synthetic peptide; also called peptide PRE 3
On to B1, for which the “binding capacity (%)” value with PKC-α (purified isoform) amounted to 22.6%; in the assay with PKC-ε (purified isoform) [1] it was 31%; with PKC-ε (purified isoform) [2], 34%.

B2: PRE 6 (peptide)
peptide: Ac-KDANQLIGISI-NH2
notes: Synthetic peptide; also called peptide PRE 6
Regarding B2, the binding result in assay [3] was “no binding (tested: 20X the primary antibody concentration)”. Further, the “binding capacity (%)” value in assay [4] was found to be 0.08%.

B3: PRE 4 (peptide)
peptide: Ac-KDAQNLIGISI-NH2
notes: Synthetic peptide; also called peptide PRE 4
For the molecule B3, the figures for the “binding capacity (%)” value (with PKC-α (purified isoform); in assay [4]) were 22.8% and 2.69%, respectively.

B4: PRE 11 (peptide)
peptide: Ac-RDAQNLIGISI-NH2
notes: Synthetic peptide; also called peptide PRE 11
As to B4, the “binding capacity (%)” value with PKC-α (purified isoform) stood at 13.3%; in the assay with PKC-ε (purified isoform) [1] it was 9.84%; with PKC-ε (purified isoform) [2], 2.25%.

B5: PRE 12 (peptide)
peptide: Ac-KDAQNLI-NH2
notes: Synthetic peptide; also called peptide PRE 12; Ac-KDAQNLI-NH2
Consider B5, for which the results for the “binding capacity (%)” value in the assay with PKC-α (purified isoform), with PKC-ε (purified isoform) [1] and with PKC-ε (purified isoform) [2] were 0%, 0% and 10.4%, respectively.

B6: PRE 13 (peptide)
peptide: Ac-RDAQNLI-NH2
notes: Synthetic peptide; also called peptide PRE 13; Ac-RDAQNLI-NH2
Consider B6, for which the binding result in assay [3] is listed as “no binding (tested: 20X the primary antibody concentration)”. Moreover, the “binding capacity (%)” value came out at 0.85% with PKC-ε (purified isoform) [1], 0% in assay [4] and 0% in the assay with PKC-ε (purified isoform) [2].

B7: PRE 7 (peptide)
peptide: Ac-ISIGILQNADK-NH2
notes: Synthetic peptide (retro form of PRE 4); also called peptide PRE 7
As for B7, the binding result in assay [3] is recorded as “no binding (tested: 20X the primary antibody concentration)”. The “binding capacity (%)” value with PKC-α (purified isoform) stood at 6.59%; with PKC-ε (purified isoform) [1] it was 3.78%; with PKC-ε (purified isoform) [2] it was 8.04%.
